B1: Alpha-crystallin B chain (Homo sapiens), P02511 (parent)
chain: MDIAIHHPWIRRPFFPFHSPSRLFDQFFGEHLLESDLFPTSTSLSPFYLRPPSFLRAPSWFDTGLSEMRLEKDRFSVNLDVKHFSPEELKVKVLGDVIEVHGKHEERQDEHGFISREFHRKYRIPADVDPLTITSSLSSDGVLTVNGPRKQVSGPERTIPITREEKPAVTAAPKK
partner: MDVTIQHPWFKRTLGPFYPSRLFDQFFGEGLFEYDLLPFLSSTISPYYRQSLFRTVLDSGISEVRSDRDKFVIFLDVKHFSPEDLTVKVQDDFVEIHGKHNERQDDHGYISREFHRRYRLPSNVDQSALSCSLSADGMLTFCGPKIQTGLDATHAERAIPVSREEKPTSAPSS
B2: Alpha-crystallin B chain (Homo sapiens), P02511 (parent)
chain: B1 chain
partner: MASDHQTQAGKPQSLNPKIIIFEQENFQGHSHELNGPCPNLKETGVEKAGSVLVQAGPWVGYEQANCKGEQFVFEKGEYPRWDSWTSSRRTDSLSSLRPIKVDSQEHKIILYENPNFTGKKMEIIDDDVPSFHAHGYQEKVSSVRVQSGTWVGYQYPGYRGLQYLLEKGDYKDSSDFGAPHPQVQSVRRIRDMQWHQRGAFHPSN
B3: Gamma-crystallin C (Homo sapiens), P07315 (parent)
chain: MGKITFYEDRAFQGRSYETTTDCPNLQPYFSRCNSIRVESGCWMLYERPNYQGQQYLLRRGEYPDYQQWMGLSDSIRSCCLIPQTVSHRLRLYEREDHKGLMMELSEDCPSIQDRFHLSEIRSLHVLEGCWVLYELPNYRGRQYLLRPQEYRRCQDWGAMDAKAGSLRRVVDLY
partner: B1 chain
B4: Alpha-crystallin A chain (Homo sapiens), P02489 (parent)
chain: B1 partner
partner: B2 partner
B5: Alpha-crystallin A chain (Homo sapiens), P02489 (parent)
chain: B1 partner
partner: B1 chain
B6: Gamma-crystallin C (Homo sapiens), P07315 (parent)
chain: B3 chain
partner: B2 partner
B7: Alpha-crystallin A chain (Homo sapiens), P02489 (parent)
chain: B1 partner

Variants of: B1
Conditions: with cryaa_human CRYAA
In the case of MDIAIHHPWIRRPFFPFHSPSRLFDQFFGEHLLESDLFPTSTSLSPFYLRPPSFLRAPSWFDTGLSEMRLEKDRFSVNLDVKHFSPEELKVKVLGDVIEVHGKHEERQDEHGFISREFHGKYRIPADVDPLTITSSLSSDGVLTVNGPRKQVSGPERTIPITREEKPAVTAAPKK [R120G], the “effect of a mutation on the interaction” value is reported as “decreasing interaction”.

Variants of: B2
Conditions: with crbb2_human CRYBB2, P43320
In the case of MDIAIHHPWIRRPFFPFHSPSRLFDQFFGEHLLESDLFPTSTSLSPFYLRPPSFLRAPSWFDTGLSEMRLEKDRFSVNLDVKHFSPEELKVKVLGDVIEVHGKHEERQDEHGFISREFHGKYRIPADVDPLTITSSLSSDGVLTVNGPRKQVSGPERTIPITREEKPAVTAAPKK [R120G], the “effect of a mutation on the interaction” value is reported as “increasing interaction”.

Variants of: B3
Conditions: with cryab_human CRYAB
With T5P the “effect of a mutation on the interaction” value was “disrupting interaction”.

Variants of: B4
Conditions: with crbb2_human CRYBB2, P43320
In the case of MDVTIQHPWFKRTLGPFYPSRLFDQFFGEGLFEYDLLPFLSSTISPYYRQSLFRTVLDSGISEVRSDRDKFVIFLDVKHFSPEDLTVKVQDDFVEIHGKHNERQDDHGYISREFHCRYRLPSNVDQSALSCSLSADGMLTFCGPKIQTGLDATHAERAIPVSREEKPTSAPSS [R116C], the “effect of a mutation on the interaction” value is reported as “disrupting interaction”.

Variants of: B5
Conditions: with cryab_human CRYAB
With MDVTIQHPWFKRTLGPFYPSRLFDQFFGEGLFEYDLLPFLSSTISPYYRQSLFRTVLDSGISEVRSDRDKFVIFLDVKHFSPEDLTVKVQDDFVEIHGKHNERQDDHGYISREFHCRYRLPSNVDQSALSCSLSADGMLTFCGPKIQTGLDATHAERAIPVSREEKPTSAPSS [R116C] the “effect of a mutation on the interaction” value was “increasing interaction”.

Variants of: B6
Conditions: with crbb2_human CRYBB2, P43320
T5P was tested, and the “effect of a mutation on the interaction” value was “disrupting interaction”.

Variants of: B7
Conditions: with crgc_human CRYGC
MDVTIQHPWFKRTLGPFYPSRLFDQFFGEGLFEYDLLPFLSSTISPYYRQSLFRTVLDSGISEVRSDRDKFVIFLDVKHFSPEDLTVKVQDDFVEIHGKHNERQDDHGYISREFHCRYRLPSNVDQSALSCSLSADGMLTFCGPKIQTGLDATHAERAIPVSREEKPTSAPSS [R116C] was tested, and the “effect of a mutation on the interaction” value was “disrupting interaction”.

From IntAct's records for PubMed 12601044
